Test results from patent publication US20240399042A1.

How the values were obtained:
[1] = target: Marburg-GP (Marburg)
[2] = target: Ebola-Zaire-sGP: Soluble glycoprotein (sGP) released from infected cells (Ebola, species Zaire ebolavirus) (UniProt P60170)
Chain of Ebola-Zaire-sGP: Soluble glycoprotein (sGP) released from infected cells (Ebola, species Zaire ebolavirus) (P60170 33-324 limits assumed): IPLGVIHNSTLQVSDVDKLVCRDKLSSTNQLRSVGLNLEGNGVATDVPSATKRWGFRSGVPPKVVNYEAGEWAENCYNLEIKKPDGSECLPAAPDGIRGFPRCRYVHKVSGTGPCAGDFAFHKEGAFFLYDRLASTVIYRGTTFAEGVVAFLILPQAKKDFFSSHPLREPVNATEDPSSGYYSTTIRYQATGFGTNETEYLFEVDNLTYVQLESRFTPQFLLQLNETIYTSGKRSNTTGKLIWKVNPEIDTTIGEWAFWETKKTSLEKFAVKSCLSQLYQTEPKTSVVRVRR

Chain of Galanthus nivalis agglutinin (GNA) (P30617 24-128 limits assumed): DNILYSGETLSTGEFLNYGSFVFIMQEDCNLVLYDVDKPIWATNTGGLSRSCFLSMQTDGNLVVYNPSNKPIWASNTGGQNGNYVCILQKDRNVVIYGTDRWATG

Substance: Galanthus nivalis agglutinin (GNA) (from UniProt P30617 24-128)
- % Removal (run of 3 hours) [1]: 60%
- % Removal at 6 hours [2]: 97%
